According to patent US8846363B2, “Compositions of and methods of using sulfatases from Flavobacterium heparinum” (priority 2007, dated 2014):

Substrate: Cc1cc(=O)oc2cc(O[C@H]3O[C@H](CO)[C@@H](O)[C@H](O)[C@H]3NS(=O)(=O)O)ccc12
Test: Steady-state kinetics, coupled N-sulfamidase/α-glucosidase fluorimetric assay with 4-MU-GlcNS
Format: biochemical, Flavobacterium heparinum (Pedobacter heparinus)
Source text: Recombinant protein expression in the E. coli strain BL21(DE3) and one-step affinity purification by nickel chelation chromatography were as described for 2-O-sulfatase (Myette et al., 2003 J Biol Chem 278, 12157-12166). The prediction of NH2-terminal signal sequences and putative cleavage sites for the two respective proteins was made by the Von Heijne computational method (Nielsen et al., 1997 Protein Eng 10, 1-6.). Engineering and expression of these truncated proteins (minus signal sequences) were as described above for the full-length genes with the exception of substituting the 5′ primers which were used in the original PCR amplification step. These internal primers included 5′ TCTAGACATATGTCTTGCCAGCAGCCTAAAC 3′ (for ORF B; SEQ ID NO: 15) and 5′ TCTAGACATATGTCCTGCACTTCGCCGGAA 3′ (for ORF C; SEQ ID NO: 16), with the Nde 1 site underlined. As such, the ORF B gene sequence begins at Met 18 (FIG. 1). Likewise, the ORF C gene sequence begins at Ser 21 (FIG. 2). Removal of the 6×His tag was achieved by site-specific protease cleavage using the thrombin cleavage capture kit (Novagen, San Diego, Calif.). Proteolysis conditions were generally as described for other recombinantly expressed flavobacterial heparin degrading enzymes. […]
Indirect measurement of enzyme activity was also made using a fluorimetrically-based plate assay in which the prerequisite desulfation of the appropriate glucopyranoside 1→4 methlybelliferone substrate by either the 6-O-sulfatase or N-sulfamidase was coupled to the glucosidase-mediated hydrolysis of the stereo-specific 1→4 glycosidic linkage between the pyranose ring and the adjoining fluorophore. Release of the free fluorophore (4-MU) was monitored spectroscopically as described above for the arylsulfatase assay using 4-MU sulfate. […] Reaction conditions were optimized to satisfy three related criteria: 1) linear readout of fluorescent signal which is directly proportional to sulfatase activity; 2) quantitative release of 4-MU by glucosidase activity under every biochemical condition examined and; 3) negligible fluorescent quenching of the free chromophore.
Coupled N-sulfamidase assay was generally described for the 6-O-sulfatase, but with the following modifications: 4-MU-GlcNS as substrate, 50 mM sodium acetate at pH 6.0 (instead of 5.5) and 1 μM enzyme. […] The obvious difference in enzyme efficacies between α-glucosidase versus β-glucosidase is reflected in the substantially longer incubation times required for the α-glucosidase to quantitatively hydrolyze the glycosidic α1→4 linkage between the fluorophore and the desulfated glucosamine. […]

[1] = other: Addition: 0.5 mM Ca^+2, pH 6.0, 37.0 °C
[2] = other: Addition: 5 mM Ca^+2, pH 6.0, 37.0 °C

B1: Flavobacterium heparinum N-sulfamidase (ORF C), recombinant, NH2-terminal truncation lacking signal sequence, SEQ ID NO: 4 (Pedobacter heparinus DSM 2366) (protein)
chain: SCTSPEKKTDRPNILMIMSDNQSWNHVGSYGDQTVRTPNMDRIAKEGVRFTNAFCSSPSCTPARAGMLTGQDIWRLEDGGNLWGVLPVKYKVYPDLLEEAGYAIGFQGKGWGPGSFEANKRPRNPAGNEFKSFGAFLKDKKEGPWCYWISSHEPHRPYVEGSGEKAGIDPNKVKVPAYLPDHISIRKDIADYYAAVETFDRELGEALDQLKASGELDNTVIVVCSDNGWQMPRGLANLYDFGTHVPLIISWPGKFKQDVVADNLVTLNDLAPTFLQLGKVPVPADMTGKSLLPIVEAGKKDEKPRDYVVLGRERHAFVRRHGLGYPGRAIRTKDYLYIKNYEPNRWPAGDPPFYGDIDPYMFNWPGETKYYLIEHKDDPKVKSFFELGMGKRPAEELFDINKDPDELHNLAALPEYQKIKQELVAKLRNYLVATKDPRETNGNIQIWDTAAYFSEIDKTPKPSKEMQKRFKLDSSYNYLK
notes: E. coli BL21(DE3), N-terminal 6xHis removed by thrombin
B1 was tested. Which Km [1] did it give?
The Km was 45 µM.

What about the kcat [1] of the same protein?
Its kcat is 0.085 s⁻¹.

What about the Km [2] of the same protein?
The Km was 178 µM.

And the kcat [2]?
Its kcat is 0.365 s⁻¹.
